Target: the molecule itself
Assay: SEC

B1: E. coli HemG (recombinant, six histidine-tagged) (enzyme, UniProt P0ACB4 1-181, looked up)
chain: MKTLILFSTRDGQTREIASYLASELKELGIQADVANVHRIEEPQWENYDRVVIGASIRYGHYHSAFQEFVKKHATRLNSMPSAFYSVNLVARKPEKRTPQTNSYARKFLMNSQWRPDRCAVIAGALRYPRYRWYDRFMIKLIMKMSGGETDTRKEVVYTDWEQVANFAREIAHLTDKPTLK
  stoichiometry N: 4

— paper PMC2749469 (Biochemistry, 2009)
